# From FireProtDB (doi:10.1007/s10930-015-9600-7)
# B1: Carboxymethylenebutenolidase, P0A115 (parent)
# chain: MLTEGISIQSYDGHTFGALVGSPAKAPAPVIVIAQEIFGVNAFMRETVSWLVDQGYAAVCPDLYARQAPGTALDPQDERQREQAYKLWQAFDMEAGVGDLEAAIRYARHQPYSNGKVGLVGYCLGGALAFLVAAKGYVDRAVGYYGVGLEKQLKKVPEVKHPALFHMGGQDHFVPAPSRQLITEGFGANPLLQVHWYEEAGHSFARTSSSGYVASAAALANERRLDFLAPLQSKKP
# Variants of: B1
# Conditions: Pseudomonas knackmussii (strain DSM 6978 / CCUG 54928 / LMG 23759 / B13), pH 7.5, Thermal, Hepes 50 mM, structure 4U2B, whole UniProt chain shown
Variant,"Tm (Activity, NaCl 75 mM) [°C]","change of melting temperature, mutant - wild type (higher = more stable) (Activity, NaCl 75 mM) [°C]",Tm (fluorescence) [°C],"change of melting temperature, mutant - wild type (higher = more stable) (fluorescence) [°C]"
K154D,53.9,2.7,54.4,2.9
Y137C,49.3,-1.9,50.8,-0.7
Q110L K154D,54.2,3.1,54.8,3.3
